Series [1] deals with the molecule itself. The series can be described thus: SEC-MALS; co-purified complexes, 1 g L^−1, ENrich SEC 650 column, 20 mM Tris-HCl (pH 7.5), 500 mM NaCl.
The target in series [2] is T1, ADAM22 ECD (non-tagged) (human, UniProt Q9P0K1-1 26-729, p.Pro81Arg).
T1 construct: signal peptide in the construct; ADAM22, human, cDNA as NM_021723 except the p.Pro81Arg polymorphism in the Pro domain; source: Expi293F, transient, co-expressed with His6-tagged LGI1; purified as the complex (Ni-NTA, SEC)
T1 sequence (looked up): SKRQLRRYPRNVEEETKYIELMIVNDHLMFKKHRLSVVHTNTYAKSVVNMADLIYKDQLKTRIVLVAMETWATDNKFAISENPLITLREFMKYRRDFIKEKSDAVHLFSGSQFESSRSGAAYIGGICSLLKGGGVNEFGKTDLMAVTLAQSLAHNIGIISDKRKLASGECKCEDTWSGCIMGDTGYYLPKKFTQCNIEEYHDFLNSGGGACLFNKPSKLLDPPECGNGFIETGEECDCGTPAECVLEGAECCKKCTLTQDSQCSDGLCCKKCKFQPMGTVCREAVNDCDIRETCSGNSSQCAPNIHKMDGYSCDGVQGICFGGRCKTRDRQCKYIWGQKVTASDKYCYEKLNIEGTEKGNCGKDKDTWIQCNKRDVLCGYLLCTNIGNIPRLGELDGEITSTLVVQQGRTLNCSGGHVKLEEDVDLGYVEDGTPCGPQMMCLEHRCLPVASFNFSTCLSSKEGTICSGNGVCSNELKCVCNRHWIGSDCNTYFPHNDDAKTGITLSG
Described as above. The settings on record: both partners purified.

Series [3] concerns the molecule itself. The series can be described thus: SEC-MALS; co-purified complexes, 1 g L^−1, ENrich SEC 650 column, 20 mM Tris-HCl (pH 7.5), 150 mM NaCl (standard condition). (SEC sorts molecules by how far they enter the pores of the column.)
Series [4] concerns the target T1, ADAM22 ECD (non-tagged). The series is described as above. The conditions noted are these: both partners purified.
Series [5] concerns the molecule itself. The series can be described thus: crystal structure; LGI1^R470A–ADAM22 ECD complex, co-expressed and co-purified; sitting drop, 20 °C, 10% PEG8000, 0.1 M zinc acetate, 0.1 M MES-NaOH (pH 6.0); 7.13 Å.
Series [6] concerns the molecule itself. The series can be described thus: SEC-SAXS; LGI1–ADAM22 complex (LGI1^R470A) at 5.7 or 8.2 g L^−1, ENrich SEC 650, 20 mM Tris-HCl (pH 7.5), 150 or 500 mM NaCl, 293 K; scattering curve compared with curves of the 2:2 crystal structure and a 3:3 model.
In series [7] the target is T2, ADAM22 ECD (C-terminal His6 tag) (human, UniProt Q9P0K1-1 26-729, p.Pro81Arg).
T2 construct: signal peptide in the construct; ADAM22, human, cDNA as NM_021723 except the p.Pro81Arg polymorphism in the Pro domain; also called ADAM22 ectodomain; source: Expi293F, transient, co-expressed with LGI1 EPTP-His6; purified from culture medium (Ni-NTA, SEC)
T2 sequence (looked up): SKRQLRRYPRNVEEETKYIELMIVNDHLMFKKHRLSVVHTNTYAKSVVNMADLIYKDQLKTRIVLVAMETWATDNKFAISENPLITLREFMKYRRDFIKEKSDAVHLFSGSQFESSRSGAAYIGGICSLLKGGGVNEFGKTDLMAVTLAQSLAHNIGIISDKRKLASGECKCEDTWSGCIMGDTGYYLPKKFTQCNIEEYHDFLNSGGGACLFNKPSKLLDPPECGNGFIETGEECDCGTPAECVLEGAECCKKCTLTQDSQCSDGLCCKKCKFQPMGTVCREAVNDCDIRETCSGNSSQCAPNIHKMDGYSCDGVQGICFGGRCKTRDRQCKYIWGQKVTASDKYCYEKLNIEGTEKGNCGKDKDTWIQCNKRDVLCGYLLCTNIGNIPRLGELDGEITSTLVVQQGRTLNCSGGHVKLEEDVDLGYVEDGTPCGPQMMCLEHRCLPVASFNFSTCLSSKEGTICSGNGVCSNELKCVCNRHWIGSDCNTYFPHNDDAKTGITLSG
The series can be described thus: SEC-MALS; co-purified complexes, 1 g L^−1, ENrich SEC 650 column, 20 mM Tris-HCl (pH 7.5), 150 mM NaCl (standard condition). The settings on record: both partners purified.

The record followed here is paper PMC5906670, “Structural basis of epilepsy-related ligand–receptor complex LGI1–ADAM22” (Nature Communications, 2018).

B1: full-length LGI1 (residues 37–557), C-terminal His6 (ligand, human, UniProt O95970-1 37-557, looked up)
chain: PAKPKCPAVCTCTKDNALCENARSIPRTVPPDVISLSFVRSGFTEISEGSFLFTPSLQLLLFTSNSFDVISDDAFIGLPHLEYLFIENNNIKSISRHTFRGLKSLIHLSLANNNLQTLPKDIFKGLDSLTNVDLRGNSFNCDCKLKWLVEWLGHTNATVEDIYCEGPPEYKKRKINSLSSKDFDCIITEFAKSQDLPYQSLSIDTFSYLNDEYVVIAQPFTGKCIFLEWDHVEKTFRNYDNITGTSTVVCKPIVIETQLYVIVAQLFGGSHIYKRDSFANKFIKIQDIEILKIRKPNDIETFKIENNWYFVVADSSKAGFTTIYKWNGNGFYSHQSLHAWYRDTDVEYLEIVRTPQTLRTPHLILSSSSQRPVIYQWNKATQLFTNQTDIPNMEDVYAVKHFSVKGDVYICLTRFIGDSKVMKWGGSSFQDIQRMPSRGSMVFQPLQINNYQYAILGSDYSFTQVYNWDAEKAKFVKFQELNVQAPRSFTHVSINKRNFLFASSFKGNTQIYKHVIVDLSA
notes: LGI1, human, cDNA NM_005097; 'full length, residues 37–557' (without the signal peptide); PDB 5Y31 holds the R470A mutant of the same limits; also called LGI1^WT; source: Expi293F, transient, co-expressed with non-tagged ADAM22 ECD; purified from culture medium (Ni-NTA, SEC)
Take B1: the results for the “stoichiometry N” value (in series [1]; in the series with ADAM22 ECD (non-tagged) [2]; in series [3]) were 2 LGI1 chains in the assembly, 1 LGI1 per ADAM22 ECD (2:2) and 3 LGI1 chains in the assembly, respectively.

B2: LGI1^R474Q (residues 37–557), C-terminal His6 (ligand, human, UniProt O95970-1 37-557, looked up)
chain: PAKPKCPAVCTCTKDNALCENARSIPRTVPPDVISLSFVRSGFTEISEGSFLFTPSLQLLLFTSNSFDVISDDAFIGLPHLEYLFIENNNIKSISRHTFRGLKSLIHLSLANNNLQTLPKDIFKGLDSLTNVDLRGNSFNCDCKLKWLVEWLGHTNATVEDIYCEGPPEYKKRKINSLSSKDFDCIITEFAKSQDLPYQSLSIDTFSYLNDEYVVIAQPFTGKCIFLEWDHVEKTFRNYDNITGTSTVVCKPIVIETQLYVIVAQLFGGSHIYKRDSFANKFIKIQDIEILKIRKPNDIETFKIENNWYFVVADSSKAGFTTIYKWNGNGFYSHQSLHAWYRDTDVEYLEIVRTPQTLRTPHLILSSSSQRPVIYQWNKATQLFTNQTDIPNMEDVYAVKHFSVKGDVYICLTRFIGDSKVMKWGGSSFQDIQRMPSQGSMVFQPLQINNYQYAILGSDYSFTQVYNWDAEKAKFVKFQELNVQAPRSFTHVSINKRNFLFASSFKGNTQIYKHVIVDLSA
notes: LGI1, human, cDNA NM_005097, residues 37-557; R474Q is a human ADLTE mutation; source: Expi293F, transient, co-expressed with ADAM22 ECD; purified as the complex (Ni-NTA, SEC)
Regarding B2, the “stoichiometry N” value with ADAM22 ECD (non-tagged) [4] is 1 LGI1 per ADAM22 ECD.

B3: LGI1^R470A (residues 37–557), C-terminal His6 (ligand, human, UniProt O95970-1 37-557, looked up)
chain: PAKPKCPAVCTCTKDNALCENARSIPRTVPPDVISLSFVRSGFTEISEGSFLFTPSLQLLLFTSNSFDVISDDAFIGLPHLEYLFIENNNIKSISRHTFRGLKSLIHLSLANNNLQTLPKDIFKGLDSLTNVDLRGNSFNCDCKLKWLVEWLGHTNATVEDIYCEGPPEYKKRKINSLSSKDFDCIITEFAKSQDLPYQSLSIDTFSYLNDEYVVIAQPFTGKCIFLEWDHVEKTFRNYDNITGTSTVVCKPIVIETQLYVIVAQLFGGSHIYKRDSFANKFIKIQDIEILKIRKPNDIETFKIENNWYFVVADSSKAGFTTIYKWNGNGFYSHQSLHAWYRDTDVEYLEIVRTPQTLRTPHLILSSSSQRPVIYQWNKATQLFTNQTDIPNMEDVYAVKHFSVKGDVYICLTRFIGDSKVMKWGGSSFQDIQAMPSRGSMVFQPLQINNYQYAILGSDYSFTQVYNWDAEKAKFVKFQELNVQAPRSFTHVSINKRNFLFASSFKGNTQIYKHVIVDLSA
notes: LGI1, human, cDNA NM_005097, residues 37-557; also called LGI1 (in the 'LGI1–ADAM22 complex'); source: Expi293F, transient, co-expressed with non-tagged ADAM22 ECD; purified as the complex (Ni-NTA, SEC)
For B3, the figures for the “stoichiometry N” value in series [5] and in series [6] were 2 LGI1 chains in the assembly and 3 LGI1 chains in the assembly, respectively.

B4: LGI1 EPTP (domain or fragment, human, UniProt O95970-1 224-557, looked up)
chain: TEFAKSQDLPYQSLSIDTFSYLNDEYVVIAQPFTGKCIFLEWDHVEKTFRNYDNITGTSTVVCKPIVIETQLYVIVAQLFGGSHIYKRDSFANKFIKIQDIEILKIRKPNDIETFKIENNWYFVVADSSKAGFTTIYKWNGNGFYSHQSLHAWYRDTDVEYLEIVRTPQTLRTPHLILSSSSQRPVIYQWNKATQLFTNQTDIPNMEDVYAVKHFSVKGDVYICLTRFIGDSKVMKWGGSSFQDIQRMPSRGSMVFQPLQINNYQYAILGSDYSFTQVYNWDAEKAKFVKFQELNVQAPRSFTHVSINKRNFLFASSFKGNTQIYKHVIVDLSA
notes: LGI1, human, cDNA NM_005097; EPTP domain, residues 224-557; also called C-terminal epitempin-repeat (EPTP) domain of LGI1; EAR domain; source: Expi293F, transient, co-expressed with His6-tagged ADAM22 ECD; purified from culture medium (Ni-NTA, SEC)
Regarding B4, the “stoichiometry N” value in series [7] stood at 1 LGI1 EPTP per ADAM22 ECD.

A word on the stoichiometry N: it is the number of molecules, sites or subunits per partner or assembly.
